Measured values as given in publication PMC10748074.

Molecular target: Keap1 labeled with Cy3 (UniProt Q14145)
Assay: MST

Sequence of UniProt Q14145 (Q14145 whole entry): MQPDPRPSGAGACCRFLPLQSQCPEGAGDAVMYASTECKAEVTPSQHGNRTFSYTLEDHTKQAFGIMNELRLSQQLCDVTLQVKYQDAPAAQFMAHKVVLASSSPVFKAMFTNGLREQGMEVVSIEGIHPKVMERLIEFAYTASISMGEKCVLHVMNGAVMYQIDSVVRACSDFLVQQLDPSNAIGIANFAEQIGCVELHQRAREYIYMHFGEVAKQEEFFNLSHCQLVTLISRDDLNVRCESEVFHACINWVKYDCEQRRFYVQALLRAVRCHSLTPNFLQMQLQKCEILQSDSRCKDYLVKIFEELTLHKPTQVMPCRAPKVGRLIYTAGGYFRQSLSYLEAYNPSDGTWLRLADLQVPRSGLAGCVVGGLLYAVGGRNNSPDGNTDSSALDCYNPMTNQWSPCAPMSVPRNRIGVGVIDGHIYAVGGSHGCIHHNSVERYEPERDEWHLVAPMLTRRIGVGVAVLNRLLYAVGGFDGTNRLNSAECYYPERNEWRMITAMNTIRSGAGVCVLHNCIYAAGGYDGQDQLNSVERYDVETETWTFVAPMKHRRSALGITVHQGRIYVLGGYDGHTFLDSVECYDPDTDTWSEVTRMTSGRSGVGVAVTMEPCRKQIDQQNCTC

Substance	Kd [nM]
MNT0, control modular nanotransporter lacking the antiKeap1 monobody fragment	93
free translocation domain of diphtheria toxin, DTox (from UniProt P00588 33-567) (domain or fragment)	> 1000
